Source: paper PMC7013354, “Selection and Characterization of CSFV-Specific Single-Domain Antibodies and Their Application along with Immunomagnetic Nanobeads and Quantum Dots” (BioMed Research International, 2020)

What was measured:
Conditions in all cases: one partner purified
[1] = biological target: T1, E2 of CSFV in infected ST cells and on CSFV virions (Classical swine fever virus, C-strain, UniProt Q96891, strain); assay: pull-down
T1 construct: also called E2 of CSFV in ST cells

[2] = biological target: T1, E2 of CSFV in infected ST cells and on …; assay: immunostaining of cells or tissue
[3] = biological target: T1, E2 of CSFV in infected ST cells and on …; assay: far-Western, overlay or dot blot

Binder | binding result [2] | also measured
recombinant sdAbE2-1 (VHH, also called sdAdE2-1; sdAbE2s) VHH: QVQLLESGGGLVQPGGSLRLSCAASGYSFIDKTMAWVRQAPGKGLEWVSAIRMHNGSTYYADSVKGRFTISRDNSKNTLYLQMNSLRAEDTAVYYCARLSRRIQAKDKAKLKYWGQGTLVTVSS | – | binding result [1]: binds
QD-sdAbE2-1 probe (VHH, also called QD605-labeled sdAbE2-1; QDs-sdAbE2-1) VHH: QVQLLESGGGLVQPGGSLRLSCAASGYSFIDKTMAWVRQAPGKGLEWVSAIRMHNGSTYYADSVKGRFTISRDNSKNTLYLQMNSLRAEDTAVYYCARLSRRIQAKDKAKLKYWGQGTLVTVSS | binds | –
AF488-sdAbE2-2 probe (VHH, also called AF488-labeled sdAbE2-2) VHH: DVQLVESGGGLVQAGGSLRLSCTASGFTFDDYAMAWFRQPPGKEREGVSCISSSGGSTWYADSVKGRFTVSRDNAKNTLYLQMNSLKPEDTAMYYCAADWGRLCVVRGPRNEYKYSGQGTQVTVSS | binds | –
recombinant sdAbE2-2 (VHH, also called sdAdE2-2; sdAbE2s) VHH: DVQLVESGGGLVQAGGSLRLSCTASGFTFDDYAMAWFRQPPGKEREGVSCISSSGGSTWYADSVKGRFTVSRDNAKNTLYLQMNSLKPEDTAMYYCAADWGRLCVVRGPRNEYKYSGQGTQVTVSS | – | binding result [3]: binds
